± gives the uncertainty stated by the source.
Assay: protein stability index of a GFP-peptide fusion (yeast GPS) (PSI 1-4); higher = more stable; sorted into four equal gates, so the index is relative within each strain
Method in brief: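 Tiled 17-residue peptides from yeast proteins were fused downstream of GFP on a plasmid that also expresses Cherry, and the pooled library was carried in yeast. Mid-log cultures grown in leucine-free medium were sorted into four equal gates by GFP/Cherry fluorescence ratio. Plasmids from each gate were PCR-amplified and Illumina-sequenced, and reads were assigned to strains by barcodes. Each peptide's protein stability index is the sum, over gates, of the gate's read frequency multiplied by its gate number.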

Sequence | protein stability index (doa10∆) | protein stability index (pdr5∆) | protein stability index (san1∆) | protein stability index (ubr1∆)
LSLKRTLTDILEDELYH [RPN4] | 3.11 ± 0.1 | 3.52 ± 0.11 | 3.47 ± 0.11 | 3.15 ± 0.11
NHGGSLGKYDLTVIEKL [SRP68] | – | – | 3.53 ± 0.14 | 3.41 ± 0.29
TQYKAGKASLFAQGKRR [RPL42A] | 3.35 ± 0.089 | 3.04 ± 0.07 | 3.1 ± 0.097 | 3.14 ± 0.1
STMGTPTVHNSTAAAPI [PGD1] | 2.83 ± 0.095 | 3.07 ± 0.059 | 2.76 ± 0.06 | 2.93 ± 0.049
LIPEDKRDQYLKSASKE [RPL28] | – | 3.1 ± 0.19 | 1.95 ± 0.18 | 3.36 ± 0.098
VASRHPSESEHPIRVLM [YDL116W/NUP84] | – | 3 ± 0.25 | 2.9 ± 0.23 | –
NKKIGKRPPEIMSTEAH [SIR4] | 3.09 ± 0.12 | 3.27 ± 0.17 | 3.04 ± 0.09 | 3.22 ± 0.088
STVAKNVSFVLPDEKSD [YCG1] | 3.2 ± 0.058 | 3.16 ± 0.037 | 3.09 ± 0.041 | 3.01 ± 0.038
KISFNLRLKLFLYEILS [SRB8] | 1.22 ± 0.066 | 1.26 ± 0.063 | 1.24 ± 0.092 | 1.17 ± 0.048
TDKPFSSTQDVILRKIS [CSI1] | 2.87 ± 0.13 | 3.31 ± 0.13 | 2.92 ± 0.071 | 3.05 ± 0.06
KNDEVLGLLLPIAASTD [RPN1] | 2.02 ± 0.055 | 2.3 ± 0.062 | 2.47 ± 0.063 | 2.6 ± 0.071
CKQFPKLSCIQLNCIDT [SRB8] | 1.54 ± 0.041 | 1.95 ± 0.039 | 1.52 ± 0.043 | 1.66 ± 0.026
LNRFNFQNTNTRSALKL [QCR2] | 2.71 ± 0.076 | 2.91 ± 0.069 | 2.83 ± 0.075 | 2.62 ± 0.074
DFISPELIIDKVTCSSN [MED1] | 1.69 ± 0.1 | 1.75 ± 0.099 | 1.82 ± 0.22 | 1.37 ± 0.09
TKPFENVEKYPTFVEFI [SNU114] | 2.7 ± 0.23 | 3.02 ± 0.1 | 2.87 ± 0.11 | 2.86 ± 0.11
KFNAAPEENATEGPSDK [SNF12] | 3.1 ± 0.16 | 3.58 ± 0.14 | 3.26 ± 0.081 | 3.26 ± 0.098
LQSNSKLASTLEKISSS [SMC4] | 2.79 ± 0.04 | 2.52 ± 0.035 | 2.54 ± 0.037 | 2.53 ± 0.034
EKTINDLQRTQTLSEKE [YIL149C/MLP2] | 2.97 ± 0.071 | 3.03 ± 0.06 | 2.94 ± 0.044 | 2.94 ± 0.042
MEDKISEFLNVPFESLQ [YIL149C/MLP2] | 3.18 ± 0.09 | 3.35 ± 0.079 | 3.33 ± 0.067 | 3.06 ± 0.057
TREKVLEDKLRAVLTPL [RRP46] | 2.89 ± 0.17 | 3.05 ± 0.11 | 2.91 ± 0.19 | 2.82 ± 0.11
IPDLSIQNDIYLNDLMI [RPN12] | 2.99 ± 0.046 | 3.06 ± 0.042 | 2.99 ± 0.044 | 3.02 ± 0.046
QPKPLFSFGKSDAAKEP [YOR098C/NUP1] | 2.52 ± 0.07 | 2.6 ± 0.039 | 2.44 ± 0.073 | 2.72 ± 0.085
HPFGHALVAGIERYPLK [RPL27A] | 2.53 ± 0.082 | 2.3 ± 0.098 | 2.49 ± 0.082 | 2.49 ± 0.062
LAAVPAAGPASAGGAAA [RPP2A] | 2.35 ± 0.085 | 1.58 ± 0.063 | 1.4 ± 0.26 | 1.61 ± 0.071
EDGTSASFQIVEEDHTL [RPC19] | 3.02 ± 0.16 | 3.69 ± 0.17 | 3.4 ± 0.12 | 3.25 ± 0.13
ALGEFADWDPESMAYTA [YML031W/NDC1] | 3.52 ± 0.14 | 3.54 ± 0.089 | 3.36 ± 0.083 | 3.26 ± 0.064
LCVLDYDNIDIQRGRIL [RPB7] | 1.96 ± 0.1 | 1.93 ± 0.1 | 3.08 ± 0.13 | 2.42 ± 0.12

Sequence | protein stability index (doa10∆) | protein stability index (pdr5∆) | protein stability index (san1∆) | protein stability index (ubr1∆)
TIANSIILHFANFGEIL [YMR153W/NUP53] | 2.15 ± 0.055 | 2.38 ± 0.054 | 2.23 ± 0.062 | 2.27 ± 0.062
NKLMEKDFQVNKEIKPY [SIR4] | 3.35 ± 0.059 | 3.38 ± 0.054 | 3.12 ± 0.059 | 3.28 ± 0.047
DRFKPNLDIAKDLIRTD [MED4] | 3.38 ± 0.19 | 3.34 ± 0.19 | 2.82 ± 0.11 | 2.96 ± 0.14
QGRDTSKLPDPERWLPL [SRP72] | 3.33 ± 0.16 | 2.86 ± 0.21 | 3.31 ± 0.13 | 2.93 ± 0.17
MSFIFPSYAERQSSDES [YML031W/NDC1] | 2.58 ± 0.051 | 2.04 ± 0.048 | 2.74 ± 0.066 | 2.5 ± 0.046
EHHSSVKYASPNLNMKY [FAS2] | 3.17 ± 0.068 | 3 ± 0.06 | 2.94 ± 0.054 | 2.92 ± 0.04
FQFFPKELDALQEKEQL [ISW2] | 2.79 ± 0.066 | 2.97 ± 0.074 | 3.04 ± 0.043 | 2.97 ± 0.06
KLLDSGCENPADVFRRC [SRP72] | 2.46 ± 0.058 | 1.72 ± 0.047 | 2.13 ± 0.1 | 2.16 ± 0.071
AAEPMDSKMIQDLSRNT [SNU114] | 2.93 ± 0.18 | – | 3.18 ± 0.19 | –
GIRWELISRLCPNSTGA [RPT1] | 2.04 ± 0.047 | 2.25 ± 0.05 | 2.12 ± 0.076 | 2.19 ± 0.038
IAEVGNKRWKVDIGGKQ [RRP4] | 3.62 ± 0.19 | 3.32 ± 0.14 | 3.22 ± 0.11 | 3.36 ± 0.061
HSFEDAHTPMLQMYSKI [FAS1] | 2.75 ± 0.06 | 3.03 ± 0.086 | 2.82 ± 0.096 | 2.84 ± 0.076
TSLATSAGQPNLLLSAS [ASC1] | 2.03 ± 0.06 | 1.93 ± 0.06 | 2.03 ± 0.062 | 1.99 ± 0.049
LKNTMQYLTNFSRFRDQ [RPB4] | 3.09 ± 0.12 | 2.97 ± 0.17 | 3.1 ± 0.087 | 3.19 ± 0.074
TRLKSLLKPFHVKVNDK [SIR3] | 2.65 ± 0.093 | 2.96 ± 0.082 | 2.79 ± 0.075 | 2.81 ± 0.052
KNDTHYLLPDDFHFSTD [BRN1] | 2.81 ± 0.072 | 3.19 ± 0.074 | 2.9 ± 0.055 | 2.95 ± 0.065
DRCVDPEDPYFNTLVRI [DIS3] | 3.39 ± 0.11 | 3.41 ± 0.11 | 3.48 ± 0.058 | 3.4 ± 0.048
PTSVKLLKTTVPIVSKK [POP3] | 3.21 ± 0.1 | 2.94 ± 0.068 | 2.86 ± 0.083 | 3 ± 0.075
PLLYNSLCTVWKPNPSY [SRB5] | 1.99 ± 0.11 | 1.68 ± 0.062 | 2.21 ± 0.11 | 2.13 ± 0.1
SNYDWLFQLLNALTVGD [RPN9] | 2.34 ± 0.076 | 2.52 ± 0.075 | 2.2 ± 0.083 | 2.56 ± 0.048
QIQKNGPEITPEEATTI [PRP8] | 2.85 ± 0.26 | 2.98 ± 0.15 | 2.83 ± 0.16 | 3.12 ± 0.16
TATNSKGEQIAIFPYQD [ECM29] | 2.44 ± 0.085 | 2.98 ± 0.12 | 3.29 ± 0.12 | 3.15 ± 0.15
GLESLLNIGLGAVGLKD [YCS4] | 2.77 ± 0.1 | 2.61 ± 0.15 | 2.89 ± 0.13 | 2.68 ± 0.065
LFHFEEDEGEELTDEYL [PRP8] | 3.52 ± 0.14 | 3.01 ± 0.09 | 3.44 ± 0.06 | 3 ± 0.12
LFKRDCNQMENLLESIT [YCS4] | – | 2.17 ± 0.12 | – | 2.38 ± 0.22
LPVMESLDSCTAAFTAM [YJR042W/NUP85] | 2.65 ± 0.085 | 2.37 ± 0.066 | 2.54 ± 0.071 | 2.37 ± 0.071

Source: the supplement of paper PMC9732359
